The text below walks through data of US20200317768A1 (published 2020).

The target in assay [1] is T1, human FcγRIIb constitutively expressed on MDCK cells (human, UniProt P31994 43-310).
T1 sequence (looked up): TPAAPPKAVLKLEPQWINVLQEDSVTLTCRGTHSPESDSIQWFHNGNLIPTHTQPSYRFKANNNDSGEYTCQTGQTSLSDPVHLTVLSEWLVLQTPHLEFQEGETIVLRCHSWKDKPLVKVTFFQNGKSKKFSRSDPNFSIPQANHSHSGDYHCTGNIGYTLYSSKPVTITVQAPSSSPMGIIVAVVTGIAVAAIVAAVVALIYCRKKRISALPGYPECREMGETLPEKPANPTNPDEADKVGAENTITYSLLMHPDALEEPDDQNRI
Briefly: cell-based or functional assay.

The target in assay [2] is T2, soluble mouse FcγRII, His-tagged (mouse, UniProt P08101 30-210, limits assumed).
T2 construct: Captured on the chip by an anti-His antibody
T2 sequence (looked up): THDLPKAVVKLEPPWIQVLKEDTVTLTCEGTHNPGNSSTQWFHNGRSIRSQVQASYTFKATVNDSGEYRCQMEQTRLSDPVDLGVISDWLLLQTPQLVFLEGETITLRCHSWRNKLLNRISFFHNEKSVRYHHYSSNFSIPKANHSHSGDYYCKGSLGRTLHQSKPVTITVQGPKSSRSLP
The assay is described as follows: SPR, mouse FcgRII-His captured, antigen-antibody complex injected, pH7.4, 25C. The procedure:
Regarding the produced Fc region variant-containing antibodies, binding assays between soluble mouse FcγRII and antigen-antibody complexes were performed using BIACORE® T200 (GE Healthcare). Soluble mouse FcγRII was produced in the form of a His-tagged molecule by a method known to those skilled in the art. An appropriate amount of an anti-His antibody was fixed onto Sensor chip CM5 (GE Healthcare) by the amine coupling method using a His capture kit (GE Healthcare) to capture mouse FcγRII. Next, an antibody-antigen complex and a running buffer (as a reference solution) were injected, and interaction was allowed to take place with the mouse FcγRII captured onto the sensor chip. 20 mM N-(2-Acetamido)-2-aminoethanesulfonic acid, 150 mM NaCl, 1.2 mM CaCl₂, and 0.05% (w/v) TWEEN, 20 at pH7.4 was used as the running buffer, and the respective buffer was also used to dilute the soluble mouse FcγRII. To regenerate the sensor chip, 10 mM glycine-HCl at pH1.5 was used. All measurements were carried out at 25° C. […] To calculate the parameters, the BIACORE® T100 Evaluation Software (GE Healthcare) was used.
Background: Surface plasmon resonance follows binding to a sensor surface in real time, without labels.

B1: M103205H795-P1549m/M103202L889-SK1 (antibody, human IgG1, kappa)
heavy: QVTLKESGPVLVKPTETLTLTCTVSGIDLSHDDISWVRQAPGKGLEWVGIISYAGSTYYASWAKGRLTISKDTSKNQVVLTMTNMDPVDTATYYCARGVPAYSHGGDLWGQGTLVTVSSASTKGPSVFPLAPSSKSTSGGTAALGCLVKDYFPEPVTVSWNSGALTSGVHTFPAVLQSSGLYSLSSVVTVPSSSLGTQTYICNVNHKPSNTKVDKKVEPKSCDKTHTCPPCPAPELLGGPSVFLFPPKPKDTLMISRTPEVTCVVVDVSHEDPEVKFNWYVDGVEVHNAKTKPREEQYNSTYRVVSVLTVLHRDWLNGKEYKCKVSNKALPAPIEKTISKAKGQPREPQVYTLPPSREEMTKNQVSLTCLVKGFYPSDIAVEWESNRQPENNYKTTPPVLDSDRSFFLYSKLTVDKSRWQQGNVFSCSVMHEALHNHYTQKSLSLSP
light: DIVMTQSPATLSLSPGERATLSCTSSQSVYHANWLSWFQQKPGQPPKLLIYWASTLAYGVPSRFSGSGSGTDFTLTISSLQPEDAATYYCAGGYGGGRYAFGQGTKVEIKRTVAAPSVFIFPPSDEQLKSGTASVVCLLNNFYPREAKVQWKVDNALQSGNSQESVTEQDSKDSTYSLSSTLTLSKADYEKHKVYACEVTHQGLSSPVTKSFNRGEC
For the molecule B1, the celluar uptake in assay [1] is 2.03 relative to SG1 (=1.00). In addition, in assay [2], the “biacore IC binding” value was 1.22 relative to SG1 (=1.00).

B2: M103205H795-P1550m/M103202L889-SK1 (antibody, human IgG1, kappa)
heavy: QVTLKESGPVLVKPTETLTLTCTVSGIDLSHDDISWVRQAPGKGLEWVGIISYAGSTYYASWAKGRLTISKDTSKNQVVLTMTNMDPVDTATYYCARGVPAYSHGGDLWGQGTLVTVSSASTKGPSVFPLAPSSKSTSGGTAALGCLVKDYFPEPVTVSWNSGALTSGVHTFPAVLQSSGLYSLSSVVTVPSSSLGTQTYICNVNHKPSNTKVDKKVEPKSCDKTHTCPPCPAPELLGGPSVFLFPPKPKDTLMISRTPEVTCVVVDVSHEDPEVKFNWYVDGVEVHNAKTKPREEQYNSTYRVVSVLTVLHRDWLNGKEYKCKVSNKALPAPIEKTISKAKGQPREPQVYTLPPSREEMTKNQVSLTCLVKGFYPSDIAVEWESNGQPRNNYKTTPPVLDSRGSFFLYSKLTVDKSRWQQGNVFSCSVMHEALHNHYTQKSLSLSP
light: DIVMTQSPATLSLSPGERATLSCTSSQSVYHANWLSWFQQKPGQPPKLLIYWASTLAYGVPSRFSGSGSGTDFTLTISSLQPEDAATYYCAGGYGGGRYAFGQGTKVEIKRTVAAPSVFIFPPSDEQLKSGTASVVCLLNNFYPREAKVQWKVDNALQSGNSQESVTEQDSKDSTYSLSSTLTLSKADYEKHKVYACEVTHQGLSSPVTKSFNRGEC
Consider B2, for which, in assay [1], the celluar uptake is 6.43 relative to SG1 (=1.00). The “biacore IC binding” value in assay [2] is 1.63 relative to SG1 (=1.00).

B3: M103205H795-P1551m/M103202L889-SK1 (antibody, human IgG1, kappa)
heavy: QVTLKESGPVLVKPTETLTLTCTVSGIDLSHDDISWVRQAPGKGLEWVGIISYAGSTYYASWAKGRLTISKDTSKNQVVLTMTNMDPVDTATYYCARGVPAYSHGGDLWGQGTLVTVSSASTKGPSVFPLAPSSKSTSGGTAALGCLVKDYFPEPVTVSWNSGALTSGVHTFPAVLQSSGLYSLSSVVTVPSSSLGTQTYICNVNHKPSNTKVDKKVEPKSCDKTHTCPPCPAPELLGGPSVFLFPPKPKDTLMISRTPEVTCVVVDVSHEDPEVKFNWYVDGVEVHNAKTKPREEQYNSTYRVVSVLTVLHRDWLNGKEYKCKVSNKALPAPIEKTISKAKGQPREPQVYTLPPSREEMTKNQVSLTCLVKGFYPSDIAVEWESNGQPRNNYKTTPPVLDSDRSFFLYSKLTVDKSRWQQGNVFSCSVMHEALHNHYTQKSLSLSP
light: DIVMTQSPATLSLSPGERATLSCTSSQSVYHANWLSWFQQKPGQPPKLLIYWASTLAYGVPSRFSGSGSGTDFTLTISSLQPEDAATYYCAGGYGGGRYAFGQGTKVEIKRTVAAPSVFIFPPSDEQLKSGTASVVCLLNNFYPREAKVQWKVDNALQSGNSQESVTEQDSKDSTYSLSSTLTLSKADYEKHKVYACEVTHQGLSSPVTKSFNRGEC
In the case of B3, in assay [1], the celluar uptake is 2.91 relative to SG1 (=1.00). Besides, the “biacore IC binding” value in assay [2] was 1.33 relative to SG1 (=1.00).

B4: M103205H795-P1553m/M103202L889-SK1 (antibody, human IgG1, kappa)
heavy: QVTLKESGPVLVKPTETLTLTCTVSGIDLSHDDISWVRQAPGKGLEWVGIISYAGSTYYASWAKGRLTISKDTSKNQVVLTMTNMDPVDTATYYCARGVPAYSHGGDLWGQGTLVTVSSASTKGPSVFPLAPSSKSTSGGTAALGCLVKDYFPEPVTVSWNSGALTSGVHTFPAVLQSSGLYSLSSVVTVPSSSLGTQTYICNVNHKPSNTKVDKKVEPKSCDKTHTCPPCPAPELLGGPSVFLFPPKPKDTLMISRTPEVTCVVVDVSHEDPEVKFNWYVDGVEVHNAKTKPREEQYNSTYRVVSVLTVLHQDWLNGKEYKCKVSNKALPAPIEKTISKAKGQPREPQVYTLPPSREEMTKNQVSLTCLVKGFYPSDIAVEWESNRQPENNYKTTPPVLDSDRSFFLYSKLTVKKSRWQQGNVFSCSVMHEALHNHYTQKSLSLSP
light: DIVMTQSPATLSLSPGERATLSCTSSQSVYHANWLSWFQQKPGQPPKLLIYWASTLAYGVPSRFSGSGSGTDFTLTISSLQPEDAATYYCAGGYGGGRYAFGQGTKVEIKRTVAAPSVFIFPPSDEQLKSGTASVVCLLNNFYPREAKVQWKVDNALQSGNSQESVTEQDSKDSTYSLSSTLTLSKADYEKHKVYACEVTHQGLSSPVTKSFNRGEC
Turning to B4, the celluar uptake in assay [1] is 2.86 relative to SG1 (=1.00). The “biacore IC binding” value in assay [2] is 1.47 relative to SG1 (=1.00).

B5: M103205H795-P1555m/M103202L889-SK1 (antibody, human IgG1, kappa)
heavy: QVTLKESGPVLVKPTETLTLTCTVSGIDLSHDDISWVRQAPGKGLEWVGIISYAGSTYYASWAKGRLTISKDTSKNQVVLTMTNMDPVDTATYYCARGVPAYSHGGDLWGQGTLVTVSSASTKGPSVFPLAPSSKSTSGGTAALGCLVKDYFPEPVTVSWNSGALTSGVHTFPAVLQSSGLYSLSSVVTVPSSSLGTQTYICNVNHKPSNTKVDKKVEPKSCDKTHTCPPCPAPELLGGPSVFLFPPKPKDTLMISRTPEVTCVVVDVSHEDPEVKFNWYVDGVEVHNAKTKPREEQYNSTYRVVSVLTVLHQDWLNGKEYKCKVSNKALPAPIEKTISKAKGQPREPQVYTLPPSREEMTKNQVSLTCLVKGFYPSDIAVEWESNGQPRNNYKTTPPVLDSDRSFFLYSKLTVKKSRWQQGNVFSCSVMHEALHNHYTQKSLSLSP
light: DIVMTQSPATLSLSPGERATLSCTSSQSVYHANWLSWFQQKPGQPPKLLIYWASTLAYGVPSRFSGSGSGTDFTLTISSLQPEDAATYYCAGGYGGGRYAFGQGTKVEIKRTVAAPSVFIFPPSDEQLKSGTASVVCLLNNFYPREAKVQWKVDNALQSGNSQESVTEQDSKDSTYSLSSTLTLSKADYEKHKVYACEVTHQGLSSPVTKSFNRGEC
Regarding B5, the celluar uptake in assay [1] was 3.71 relative to SG1 (=1.00). Besides, the “biacore IC binding” value in assay [2] is 2.01 relative to SG1 (=1.00).

B6: M103205H795-SG141/M103202L889-SK1 (antibody, human IgG1, kappa)
heavy: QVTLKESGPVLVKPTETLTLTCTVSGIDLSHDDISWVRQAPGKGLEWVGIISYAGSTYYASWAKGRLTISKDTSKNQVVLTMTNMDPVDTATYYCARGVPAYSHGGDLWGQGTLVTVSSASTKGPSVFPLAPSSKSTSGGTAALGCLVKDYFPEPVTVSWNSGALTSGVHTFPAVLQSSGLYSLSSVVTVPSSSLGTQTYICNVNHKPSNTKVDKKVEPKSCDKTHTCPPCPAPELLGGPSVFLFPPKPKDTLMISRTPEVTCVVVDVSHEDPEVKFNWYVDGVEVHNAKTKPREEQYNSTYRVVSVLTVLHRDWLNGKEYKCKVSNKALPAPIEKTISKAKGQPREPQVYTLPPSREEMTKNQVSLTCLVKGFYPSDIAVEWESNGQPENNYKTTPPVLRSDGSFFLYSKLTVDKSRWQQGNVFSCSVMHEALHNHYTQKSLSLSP
light: DIVMTQSPATLSLSPGERATLSCTSSQSVYHANWLSWFQQKPGQPPKLLIYWASTLAYGVPSRFSGSGSGTDFTLTISSLQPEDAATYYCAGGYGGGRYAFGQGTKVEIKRTVAAPSVFIFPPSDEQLKSGTASVVCLLNNFYPREAKVQWKVDNALQSGNSQESVTEQDSKDSTYSLSSTLTLSKADYEKHKVYACEVTHQGLSSPVTKSFNRGEC
On to B6, for which the celluar uptake in assay [1] was 4.42 relative to SG1 (=1.00). For the same molecule, the “biacore IC binding” value in assay [2] was 1.64 relative to SG1 (=1.00).

B7: M103205H795-P1552m/M103202L889-SK1 (antibody, human IgG1, kappa)
heavy: QVTLKESGPVLVKPTETLTLTCTVSGIDLSHDDISWVRQAPGKGLEWVGIISYAGSTYYASWAKGRLTISKDTSKNQVVLTMTNMDPVDTATYYCARGVPAYSHGGDLWGQGTLVTVSSASTKGPSVFPLAPSSKSTSGGTAALGCLVKDYFPEPVTVSWNSGALTSGVHTFPAVLQSSGLYSLSSVVTVPSSSLGTQTYICNVNHKPSNTKVDKKVEPKSCDKTHTCPPCPAPELLGGPSVFLFPPKPKDTLMISRTPEVTCVVVDVSHEDPEVKFNWYVDGVEVHNAKTKPREEQYNSTYRVVSVLTVLHQDWLNGKEYKCKVSNKALPAPIEKTISKAKGQPREPQVYTLPPSREEMTKNQVSLTCLVKGFYPSDIAVEWESNRQPENNYKTTPPVLDSRGSFFLYSKLTVKKSRWQQGNVFSCSVMHEALHNHYTQKSLSLSP
light: DIVMTQSPATLSLSPGERATLSCTSSQSVYHANWLSWFQQKPGQPPKLLIYWASTLAYGVPSRFSGSGSGTDFTLTISSLQPEDAATYYCAGGYGGGRYAFGQGTKVEIKRTVAAPSVFIFPPSDEQLKSGTASVVCLLNNFYPREAKVQWKVDNALQSGNSQESVTEQDSKDSTYSLSSTLTLSKADYEKHKVYACEVTHQGLSSPVTKSFNRGEC
Consider B7, for which the celluar uptake in assay [1] is 4.44 relative to SG1 (=1.00). In assay [2], the “biacore IC binding” value is 2.19 relative to SG1 (=1.00).
